Experimental data from article PMC12461627, “Locking CBL TKBD in its native conformation presents a novel therapeutic opportunity in mutant CBL-dependent leukemia” (Molecular Therapy, 2025).

B1: unnamed (parent)
chain 1: MTVEEMDSWIKSWDQM
chain 2: PPGTVDKKMVEKCWKLMDKVVRLCQNPKLALKNSPPYILDLLPDTYQHLRTILSRYEGKMETLGENEYFRVFMENLMKKTKQTISLFKEGKERMYEENSQPRRNLTKLSLIFSHMLAELKGIFPSGLFQGDTFRITKADAAEFWRKAFGEKTIVPWKSFRQALHEVHPISSGLEAMALKSTIDLTCNDYISVFEFDIFTRLFQPWSSLLRNWNSLAVTHPGYMAFLTYDEVKARLQKFIHKPGSYIFRLSCTRLGQWAIGYVTADGNILQTIPHNKPLFQALIDGFREGFYLFPDGRNQNPDLTGLCEP

Variants of: B1
Assay: phage ELISA
Conditions: with partner chain of the complex shown;; read off a plot

Row | Variant | response [OD at 450 nm]
1 | chain 2 G260E | 0.1
